Reference: patent publication US20130310265A1, “METHODS OF PREPARING CYCLIC PEPTIDES AND USES THEREOF” (NORTH CAROLINA STATE UNIVERSITY, priority 2012, published 2013)
Bridges are numbered along the chain shown (N, C = ends). Where no end group is shown, it is not given here. [ ]: non-standard residue; d: D form. Lac = C[C@H](O)C(=O)O

Experiments:
Neutravidin [1] = biological target: T1, Neutravidin (Gallus gallus, UniProt P02701); experiment: Chromatographic comparison of cyclic depsipeptide and cyclic peptide resins on column; conditions: Toyopearl resin column, binding PBS pH 7.4, elution 0.2M Glycine pH 2.5, absorbance 280 nm
T1 sequence (P02701 25-152): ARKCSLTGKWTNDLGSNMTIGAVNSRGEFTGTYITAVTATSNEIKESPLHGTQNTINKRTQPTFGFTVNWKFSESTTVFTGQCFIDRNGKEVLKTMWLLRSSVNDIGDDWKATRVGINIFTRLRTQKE
Procedure: Thirty-five milligrams of cyclo[Lac-A-DRASPY-E]-Toyopearl resin and cyclo[A-A-DRASPY-E]-Toyopearl (SEQ ID NO:21, 29) resin were packed in a 30 mm×2.1 mm I.D. Microbore column (0.1 mL) and swollen with 20% v/v methanol. One hundred microliters of feed sample, namely Neutravidin 5 mg/mL in PBS pH 7.4, was loaded onto the column at a flow rate of 0.05 mL/min (87 cm/h). The column was washed with 2 mL of equilibration buffer at a flow rate of 0.2 mL/min (348 cm/h). Elution was then performed with 4 mL of 0.2M glycine buffer pH 2.5 at the flow rate of 0.4 mL/min (696 cm/h). Cleaning and regeneration were performed by 4 mL of 0.85% phosphoric acid. The effluent was monitored by absorbance at 280 nm. Fractions were collected and concentrated five times by centrifugation at 4° C., 20817×g for 30 min using an Amicon® Ultra centrifugal filter (3000 MWCO, Ultracel®, Millipore, Billerica, Mass., USA).
Cyclic depsipeptides are present in nature as very selective ligands and enzyme substrates. In many cases, however, the depside (ester) bond is found to play an active role in their biological activity and the homodetic cyclic peptide version of the same sequence can partially or completely loose the target affinity. […]

Neutravidin [2] = biological target: T1, Neutravidin; experiment: Screening simulation by the Mondorf-Carbonell radiological procedure with 14C-radiolabeled Neutravidin; assay type: binding; conditions: 10 mg of 50:50 mix of ligand resin and negative control resin, PBS, 5% 14C-radiolabeled Neutravidin, washed with PBS 0.2M NaCl 0.1% Tween 20, film five days
Source text: A solid phase library of reversible cyclic peptides synthesized as explained in sections 5.2 and 5.3 can be screened for on-bead ligands that bind to a target biological. […] The selected beads are then subjected to the alkaline treatment reported in section 5.7. See Mondorf and Carbonell 1998.
Neutravidin was radiolabeled according to the procedure reported by Mondorf et al. using ^14C formaldehyde by reductive amination. The prospected extent of radiolabeling was 5%. Mondorf Carbonell 1998.
Two aliquots of cyclo[Lac-A-DRASPY-E]-HMBA-ChemMatrix resin and cyclo[Lac-A-VVWVV-E]-HMBA-ChemMatrix (SEQ ID NO:20-21) resin and were mixed in a 50:50 proportion. 10 mg of the resin mix was swollen in 20% methanol in water for 30 min and then rinsed with PBS, pH 7.4 (3×5 min). The resin slur was then mixed with 200 μl of 5 mg/mL ^14C-labelled Neutravidin. After 2 hrs of incubation the supernatant was decanted and the resin was washed with PBS buffer containing 0.2M NaCl and 0.1% (w/v) Tween 20 until the radioactivity reached the baseline level. […]
(§1) The screening procedure followed the method set forth in sections 5.5 and 6.5. […] A volume of 250 mL of washing solution was necessary in order for the radioactivity to reach the baseline level. […] In both cases, the difference between the levels of radioactivity carried by the resin was enough to discriminate the ligand resin beads from the negative control beads.

Neutravidin [3] = biological target: T2, Neutravidin (UniProt P02701 25-152); experiment: radiological on-bead screening (autoradiography of beads in agarose)
T2 construct: In the bead screening it was radiolabelled with 14C formaldehyde by reductive amination (prospected extent 5%); In the column runs it was unlabelled, 5 mg/mL in PBS pH 7.4; also called 14C-labelled Neutravidin; target protein
T2 sequence (P02701 25-152): as above
Procedure: Two aliquots of cyclo[Lac-A-DRASPY-E]-HMBA-ChemMatrix resin and cyclo[Lac-A-VVWVV-E]-HMBA-ChemMatrix (SEQ ID NO:20-21) resin and were mixed in a 50:50 proportion. 10 mg of the resin mix was swollen in 20% methanol in water for 30 min and then rinsed with PBS, pH 7.4 (3×5 min). The resin slur was then mixed with 200 μl of 5 mg/mL ¹⁴C-labelled Neutravidin. After 2 hrs of incubation the supernatant was decanted and the resin was washed with PBS buffer containing 0.2M NaCl and 0.1% (w/v) Tween 20 until the radioactivity reached the baseline level. The washed resin was then mixed with 20 mL of 1% low melting agarose solution. The mixture was swirled to form a uniform suspension and then the slurry was poured on 16×18 cm gelbond film to form a monolayer of beads. This gel was air-dried overnight in a hood. The dried agarose gel was then exposed to photographic film for 5 days at room temperature. The photographic film was then developed, the dark spot located on the film and the corresponding beads selected.
as §1

binding chromatogram, cyclic depsipeptide vs cyclic peptide version of the same ligand sequence (FIG. 35) (Neutravidin [1])	Molecule	amount of radiolabeled target protein bound by resin beads (dark spot on developed radiographic film) (Neutravidin [2])	also measured
no difference	cyclo[Lac-A-DRASPY-E] [cyclo[Lac-A-DRASPY-E]-Toyopearl]	–	–
–	cyclo[Lac-A-VVWVV-E] ([Lac]AVVWVVE; bridge N-8; not fully specified (C-terminus, bridges); printed as cyclo[Lac-A-VVWVV-E]) [cyclo[Lac-A-VVWVV-E]-HMBA-ChemMatrix]	bound a sufficient amount of radiolabeled target protein to impress a dark spot	–
–	cyclo[Lac-A-DRASPY-E] [cyclo[Lac-A-DRASPY-E]-HMBA-ChemMatrix]	bound a sufficient amount of radiolabeled target protein to impress a dark spot	–
no difference	cyclo[A-A-DRASPY-E] (AADRASPYE-{Toyopearl AF‑Amino‑650M resin}; lactam N-9; not fully specified; printed as cyclo[A-A-DRASPY-E]) [cyclo[A-A-DRASPY-E]-Toyopearl, homodetic cyclic peptide analogue of DRASPY depsipeptide on Toyopearl resin]	–	–
–	[Lac]AVVWVVE (bridge N-8; not fully specified (C-terminus, bridges); printed as cyclo[Lac-A-VVWVV-E], also called cyclo[Lac-A-VVWVV-E]-HMBA-ChemMatrix; negative control resin) [cyclo[Lac-A-VVWVV-E]]	–	binding result (Neutravidin [3]): no binding
